B1: mouse ICAM-1: mouse ICAM-1, purified cell-free models of ref [29] (protein, UniProt P13597 28-537, looked up)
Intercellular adhesion …: QVSIHPREAFLPQGGSVQVNCSSSCKEDLSLGLETQWLKDELESGPNWKLFELSEIGEDSSPLCFENCGTVQSSASATITVYSFPESVELRPLPAWQQVGKDLTLRCHVDGGAPRTQLSAVLLRGEEILSRQPVGGHPKDPKEITFTVLASRGDHGANFSCRTELDLRPQGLALFSNVSEARSLRTFDLPATIPKLDTPDLLEVGTQQKLFCSLEGLFPASEARIYLELGGQMPTQESTNSSDSVSATALVEVTEEFDRTLPLRCVLELADQILETQRTLTVYNFSAPVLTLSQLEVSEGSQVTVKCEAHSGSKVVLLSGVEPRPPTPQVQFTLNASSEDHKRSFFCSAALEVAGKFLFKNQTLELHVLYGPRLDETDCLGNWTWQEGSQQTLKCQAWGNPSPKMTCRRKADGALLPIGVVKSVKQEMNGTYVCHAFSSHGNVTRNVYLTVLYHSQNNWTIIILVPVLLVIVGLVMAASYVYNRQRKIRIYKLQKAQEEAIKLKGQAPPP
B2: mouse D1D5Fc: mouse Fc chimera containing the five extracellular domains of ICAM-1, R&D systems (protein)
chain: QVSIHPREAFLPQGGSVQVNCSSSCKEDLSLGLETQWLKDELESGPNWKLFELSEIGEDSSPLCFENCGTVQSSASATITVYSFPESVELRPLPAWQQVGKDLTLRCHVDGGAPRTQLSAVLLRGEEILSRQPVGGHPKDPKEITFTVLASRGDHGANFSCRTELDLRPQGLALFSNVSEARSLRTFDLPATIPKLDTPDLLEVGTQQKLFCSLEGLFPASEARIYLELGGQMPTQESTNSSDSVSATALVEVTEEFDRTLPLRCVLELADQILETQRTLTVYNFSAPVLTLSQLEVSEGSQVTVKCEAHSGSKVVLLSGVEPRPPTPQVQFTLNASSEDHKRSFFCSAALEVAGKFLFKNQTLELHVLYGPRLDETDCLGNWTWQEGSQQTLKCQAWGNPSPKMTCRRKADGALLPIGVVKSVKQEMNGTYVCHAFSSHGNVTRNVYLTVLYHSQNN
modifications: left off: Fc, end not stated, kept
notes: mouse Fc chimera containing the five extracellular domains of ICAM-1, R&D systems
B3: human D1D5Fc: human Fc chimera containing the five extracellular domains of ICAM-1, R&D systems (protein)
chain: QTSVSPSKVILPRGGSVLVTCSTSCDQPKLLGIETPLPKKELLLPGNNRKVYELSNVQEDSQPMCYSNCPDGQSTAKTFLTVYWTPERVELAPLPSWQPVGKNLTLRCQVEGGAPRANLTVVLLRGEKELKREPAVGEPAEVTTTVLVRRDHHGANFSCRTELDLRPQGLELFENTSAPYQLQTFVLPATPPQLVSPRVLEVDTQGTVVCSLDGLFPVSEAQVHLALGDQRLNPTVTYGNDSFSAKASVSVTAEDEGTQRLTCAVILGNQSQETLQTVTIYSFPAPNVILTKPEVSEGTEVTVKCEAHPRAKVTLNGVPAQPLGPRAQLLLKATPEDNGRSFSCSATLEVAGQLIHKNQTRELRVLYGPRLDERDCPGNWTWPENSQQTPMCQAWGNPLPELKCLKDGTFPLPIGESVTVTRDLEGTYLCRARSTQGEVTRKVTVNVLSPRYE
modifications: left off: Fc, end not stated, kept
notes: human Fc chimera containing the five extracellular domains of ICAM-1, R&D systems

Columns and labels:
[1] = system: human LFA-1; settings: purified cell-free models; ref [29]; cited from earlier work
Excerpt: Humanized mice are widely used as in vivo models to study the molecular basis of immune-related disorders as well as the efficacy of potential drugs ([23]). In these mice, the native gene of interest is replaced by its human homolog or the immune system is eliminated and reconstituted with its human counterpart. In addition, these mice can be used to enhance the engraftment of human cancer cells allowing in vivo studies of cancer progression and treatment. Here, a major obstacle to analyze human cell function, either healthy or transformed, and disease is the lack of species cross-reactivity o ...

[2] = system: gp33-pulsed EL4 cells killed by mouse Tc cells (ICAM-1/LFA-1); test: CD8+ T cell-mediated cytotoxicity on EL4; assay type: cell-based; settings: ICAM-1 proteins, several (increasing) amounts, preincubation 45 min 37°C, effector:target 10:1, 4 h, annexin-V/7-AAD by FACS, three experiments by duplicate
[3] = system: mouse macrophages; test: Mouse macrophage adhesion to mouse ICAM-1 (D1D5Fc)-coated plates; assay type: cell-based; settings: plates coated with 5 µg mouse D1D5Fc; compared with human D1D5Fc; MTT
Protocol: (§1) Mouse macrophages were differentiated from mouse bone marrow as previously described ([37]). Briefly, bone marrow cells isolated from mouse femur were cultured in DMEM 10% FBS, 5% horse serum, and 30% supernatant of L929 cell culture as a source of M-CSF at a density of 10^6/cm^2 for 7–8 days. Macrophage differentiation was analyzed in the same way as human macrophages but using CD11b-APC and CD11c-PE (BD) antibodies.
(§2) Freshly isolated monocytes or differentiated macrophages were washed twice with PBS and incubated with trypsin (PAN Biotech) for 30 min at 37°C 5% CO2. After that, cells were scraped gently from the plate and resuspended at a final concentration of 10^6 cells/ml in complete RPMI medium. Subsequently, 10^5 macrophages and 5 × 10^5 monocytes were added to each well and incubated with several concentrations of human D1D2, D1D2Fc, D1D5Fc, mouse D1D5Fc, control human IgG1 20 µg or lovastatin 100 µM at 37°C 5% CO2 overnight. Next day, every well was washed twice with PBS, complete RPMI medium was added and the number or adherent remaining cells was quantified by a MTT colorimetric test ([38]). In some experiments, plates previously coated with human and mouse D1D5Fc were used. […]
(§3) Figure 7 Human intercellular adhesion molecule (ICAM)-1 blocks LFA-1-mediated mouse macrophage cell adhesion. […] (B) Macrophage phenotype was analyzed by flow cytometry testing the expression CD11b and CD11c. […]

[4] = system: LFA-1 in the mouse T cell line EL4; test: Binding of ICAM-1 chimeras to LFA-1 on EL4 cells by flow cytometry; assay type: cell-based; settings: mouse or human D1D5Fc 0.1 and 5 µg, 4°C 45 min; representative experiment
Protocol: The ability of human D1D2Fc and mouse and human D1D5Fc to recognize LFA-1 on mouse cells was analyzed by flow cytometry in the mouse thymic lymphoma cell line EL4. EL4 cells were incubated with different concentrations of human D1D2Fc, mouse and human D1D5Fc and human IgG1 control at 4°C for 45 min, washed twice with FACS buffer (PBS, 5% FCS, 0.1% NaN3), and then incubated with PE-conjugated goat anti-human IgG (Fcγ fragment specific; Jackson ImmunoResearch). After a washing step with FACS buffer, cells were analyzed by FACS using a FACS Calibur with CellQuest Pro software (BD). As control cells were incubated with an antibody against mouse CD11a (LFA-1) before adding human D1D2Fc.
Figure 2 Analysis of D1D2Fc binding to LFA-1 in EL4 cells by flow cytometry. (A) Different amounts of D1D2Fc (0.1, 1, and 10 µg) or human IgG1 control (10 µg) were incubated with EL4 cells. After washing out non-bound proteins, cells were incubated with PE-conjugated goat anti-human IgG Fcγ Ab and analyzed by flow cytometry. As a control EL4 cells were pretreated with a mouse LFA-1 blocking antibody (anti LFA-1) before incubating with 10 µg of D1D2Fc. Histograms show a representative experiment. […] After washing out non-bound proteins, cells were incubated with PE-conjugated goat anti-human IgG Fcγ Ab and analyzed by flow cytometry. […]

[5] = system: mouse macrophages; test: Mouse macrophage adhesion to human ICAM-1 (D1D5Fc)-coated plates; assay type: cell-based; settings: plates coated with 5 µg human D1D5Fc; compared with mouse D1D5Fc; MTT
Protocol: as §1, §2, §3

Row | Molecule | binding to human LFA-1 [1] | inhibition of Tc cell-mediated cell death of EL4 [2] | inhibition of Tc cell-mediated cell death of EL4 ([2]; listed as mouse ICAM-1 (D1D5Fc)) | adhesion of mouse macrophages to coated plate [3] | binding to EL4 cells [4] | adhesion of mouse macrophages to coated plate [5]
1 | B1 | binds human LFA-1 | – | – | – | – | –
2 | B2 | – | similarly prevented cell death | inhibited cell death | similarly adhered | bound to EL4 cells | –
3 | B3 | – | – | – | – | binding of human ICAM-1 was higher than binding of mouse ICAM-1 | similarly adhered

Reference: publication PMC5742583, “A Functional Analysis on the Interspecies Interaction between Mouse LFA-1 and Human Intercellular Adhesion Molecule-1 at the Cell Level” (Frontiers in Immunology, 2017)
